For data set [1], the target named is T1, hTRMT2A FL (WT) (Homo sapiens, UniProt Q8IZ69 1-625).
T1 sequence: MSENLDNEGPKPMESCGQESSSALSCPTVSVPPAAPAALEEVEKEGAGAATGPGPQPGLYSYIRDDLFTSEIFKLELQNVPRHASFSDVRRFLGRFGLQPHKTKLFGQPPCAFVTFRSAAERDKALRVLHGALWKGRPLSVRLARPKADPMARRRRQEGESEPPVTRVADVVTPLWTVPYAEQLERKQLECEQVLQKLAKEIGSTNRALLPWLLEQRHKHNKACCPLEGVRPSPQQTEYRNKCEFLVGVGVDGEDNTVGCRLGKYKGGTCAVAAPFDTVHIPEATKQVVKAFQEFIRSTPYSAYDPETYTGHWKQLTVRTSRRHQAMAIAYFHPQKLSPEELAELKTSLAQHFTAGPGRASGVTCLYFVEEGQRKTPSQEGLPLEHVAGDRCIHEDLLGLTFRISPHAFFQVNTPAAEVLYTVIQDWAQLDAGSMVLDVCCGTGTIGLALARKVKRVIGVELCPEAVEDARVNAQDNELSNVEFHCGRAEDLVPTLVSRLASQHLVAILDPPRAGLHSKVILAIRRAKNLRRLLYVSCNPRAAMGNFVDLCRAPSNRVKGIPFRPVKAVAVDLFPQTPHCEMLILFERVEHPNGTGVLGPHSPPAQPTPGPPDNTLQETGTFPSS
Briefly: SPR; steady-state fit, apparent KD; EMSA: 50 mM HEPES-NaOH pH 7.5, 150 mM NaCl, 4% glycerol, 2.5 ng/ul poly(U), 5 nM RNA, 0-1.25 uM protein (final, as stated), 20 min room temperature; SPR: 150 mM NaCl, 50 mM HEPES-NaOH 7.5, 0.05% Tween, 25 C. As to conditions: protein: recombinant; tags: N-terminal His-SUMO tag cleaved; label: 3' biotin; tRNA cloverleaf.

For data set [2], the target named is T2, hTRMT2A CDM (catalytic death mutant) (Homo sapiens, UniProt Q8IZ69 1-625, E76A;K104E;F113A;K242A;F409A;Q411A;D510A;C538A).
T2 sequence: T1 sequence with E76A, K104E, F113A, K242A, F409A, Q411A, D510A, C538A
Described as above. As to conditions: protein: recombinant; tags: N-terminal His-SUMO tag cleaved; label: 3' biotin; tRNA cloverleaf.

Data set [3] addresses T1, hTRMT2A FL (WT). Nature of the data set: EMSA; low nM KD range; poly(U) competitor; EMSA: 50 mM HEPES-NaOH pH 7.5, 150 mM NaCl, 4% glycerol, 2.5 ng/ul poly(U), 5 nM RNA, 0-1.25 uM protein (final, as stated), 20 min room temperature; SPR: 150 mM NaCl, 50 mM HEPES-NaOH 7.5, 0.05% Tween, 25 C. Particulars: protein: recombinant; tags: N-terminal His-SUMO tag cleaved; label: 5'-32P; tRNA cloverleaf.

Data set [4] deals with T1, hTRMT2A FL (WT). Nature of the data set: EMSA; low nM KD range; shift already at 60 nM; poly(U) competitor; EMSA: 50 mM HEPES-NaOH pH 7.5, 150 mM NaCl, 4% glycerol, 2.5 ng/ul poly(U), 5 nM RNA, 0-1.25 uM protein (final, as stated), 20 min room temperature; SPR: 150 mM NaCl, 50 mM HEPES-NaOH 7.5, 0.05% Tween, 25 C. As to conditions: protein: recombinant; tags: N-terminal His-SUMO tag cleaved; label: 5'-32P; tRNA cloverleaf.

For data set [5], the target named is T2, hTRMT2A CDM (catalytic death mutant). Nature of the data set: EMSA; similar to WT, nM KD range, more supershifts; poly(U) competitor; EMSA: 50 mM HEPES-NaOH pH 7.5, 150 mM NaCl, 4% glycerol, 2.5 ng/ul poly(U), 5 nM RNA, 0-1.25 uM protein (final, as stated), 20 min room temperature; SPR: 150 mM NaCl, 50 mM HEPES-NaOH 7.5, 0.05% Tween, 25 C. Particulars: protein: recombinant; tags: N-terminal His-SUMO tag cleaved; label: 5'-32P; tRNA cloverleaf. On the technique in general: A gel shift assay detects complexes by their altered migration in electrophoresis.

Data set [6] has as its target T1, hTRMT2A FL (WT). Briefly: size exclusion chromatography; 1:1 mix; elution shift 17.41 to 15.46 ml; EMSA: 50 mM HEPES-NaOH pH 7.5, 150 mM NaCl, 4% glycerol, 2.5 ng/ul poly(U), 5 nM RNA, 0-1.25 uM protein (final, as stated), 20 min room temperature; SPR: 150 mM NaCl, 50 mM HEPES-NaOH 7.5, 0.05% Tween, 25 C. Particulars: protein: recombinant; tags: N-terminal His-SUMO tag cleaved; tRNA cloverleaf. (In gel filtration, larger molecules generally elute earlier.)

Changes are numbered by the printed parent chain. Names may count otherwise.

B1: tRNAGln-TTG, 3' biotin (structured_RNA)
RNA: GGUCCCAUGGUGUAAUGGUUAGCACUCUGGACUUUGAAUCCAGCGAUCCGAGUUCAAAUCUCGGUGGGACCUCCA
modifications: 3' biotin
As for B1, the Kd was 306 ± 60 nM in the data set with hTRMT2A FL (WT) [1] and 428 ± 71 nM in data set [2].

B2: tRNAGln U54G (structured_RNA)
RNA: B1 RNA with U53G
On to B2, for which the binding result with hTRMT2A FL (WT) [3] is “binds”.

B3: tRNAGln-TTG (structured_RNA)
RNA: B1 RNA
Consider B3, for which the binding result (with hTRMT2A FL (WT) [4]; in data set [5]) was “binds” in each case.

B4: tRNAGln-TTG, unlabeled (structured_RNA)
RNA: B1 RNA
On to B4, for which, in the data set with hTRMT2A FL (WT) [6], the binding result is listed as “binds”.

B5: tRNAAla-AGC (A54) (structured_RNA)
RNA: GGGGAAUUAGCUCAGGCGGUAGAGCGCUCGCUUAGCAUGCGAGAGGUAGCGGGAUCGACGCCCGCAUUCUCCA
With B5, in the data set with hTRMT2A FL (WT) [3], the binding result is “binds”.

The record behind these values is paper PMC10484741, “Human TRMT2A methylates tRNA and contributes to translation fidelity”.
